Assay results published in US20090203616A1.
No end group written: not given here.

Biological target: α9α10 subtype of the nicotinic acetylcholine receptor (nAChR) (rat) (UniProt P43144)
Experiment: cell-based or functional assay

Sequence of α9α10 subtype of the nicotinic acetylcholine receptor (nAChR) (rat) (P43144 26-479, chain 1 of 2): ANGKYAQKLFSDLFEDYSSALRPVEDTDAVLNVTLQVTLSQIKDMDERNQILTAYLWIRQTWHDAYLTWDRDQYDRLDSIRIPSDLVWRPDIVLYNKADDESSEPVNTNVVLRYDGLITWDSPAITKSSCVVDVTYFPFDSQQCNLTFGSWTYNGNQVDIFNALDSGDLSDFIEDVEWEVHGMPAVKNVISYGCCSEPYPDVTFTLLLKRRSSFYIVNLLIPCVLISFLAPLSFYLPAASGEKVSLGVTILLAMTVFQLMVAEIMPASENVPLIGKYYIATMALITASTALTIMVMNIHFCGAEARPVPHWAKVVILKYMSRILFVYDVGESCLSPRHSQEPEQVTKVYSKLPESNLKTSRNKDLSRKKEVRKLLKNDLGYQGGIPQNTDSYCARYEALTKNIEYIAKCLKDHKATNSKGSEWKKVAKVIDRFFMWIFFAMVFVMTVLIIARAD
Sequence of α9α10 subtype of the nicotinic acetylcholine receptor (nAChR) (rat) (Q9JLB5 25-447, chain 2 of 2, further chain): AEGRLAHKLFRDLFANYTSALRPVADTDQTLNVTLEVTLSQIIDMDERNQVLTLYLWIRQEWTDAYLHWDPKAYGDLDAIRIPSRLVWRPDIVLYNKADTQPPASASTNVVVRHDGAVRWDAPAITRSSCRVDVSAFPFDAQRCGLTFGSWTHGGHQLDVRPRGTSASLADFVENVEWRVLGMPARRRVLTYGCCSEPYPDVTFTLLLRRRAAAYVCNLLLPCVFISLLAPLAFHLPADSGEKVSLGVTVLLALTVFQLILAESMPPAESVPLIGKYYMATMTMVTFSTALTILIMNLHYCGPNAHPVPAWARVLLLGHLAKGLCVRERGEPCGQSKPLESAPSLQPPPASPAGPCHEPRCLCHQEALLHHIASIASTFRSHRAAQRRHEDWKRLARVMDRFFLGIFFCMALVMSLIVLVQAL

**Q.** With GCCSDPRCRYRC (not fully specified (C-terminus); ends and bridges not checked) [RgIA-Cys-amide] as the binder, how does the IC50 (activity on α9α10 nAChR, oocytes as in Example 1) read?
**A.** 7.8 nM
